Tests used:
[1] = molecular target: LipA lipase of Pseudomonas cepacia DSM 3959 produced in E. coli from pAHE2 or pAHE10 (inclusion bodies) (Pseudomonas cepacia DSM 3959) (UniProt P22088)
[2] = molecular target: LipA lipase of Pseudomonas cepacia DSM 3959 produced in E. coli from pAHE2 or pAHE10 (inclusion bodies) (Pseudomonas cepacia DSM 3959) (UniProt P22088); remark: listed apart in the source
[3] = molecular target: intracellular prelipase from P. cepacia DSM 3959 (Pseudomonas cepacia DSM 3959) (UniProt P22088)
[4] = molecular target: mature, extracellular lipase from P. cepacia DSM 3959 (Pseudomonas cepacia DSM 3959) (UniProt P22088)
[5] = molecular target: mature LipA produced in E. coli without signal peptide (pAHE19, pAHE22) (Pseudomonas cepacia DSM 3959) (UniProt P22088)
[6] = molecular target: LipD, lipase from P. cepacia DSM 3401 (Pseudomonas cepacia DSM 3401)
[7] = molecular target: LipD, lipase from P. cepacia DSM 3401 (Pseudomonas cepacia DSM 3401); remark: listed apart in the source
[8] = molecular target: LipA-LipD hybrid lipase (pAHE16, pAHE23) (Pseudomonas cepacia DSM 3959; Pseudomonas cepacia DSM 3401) (UniProt P22088)

With “LimA, Pseudomonas cepacia lipase modulator (chaperone molecule) from P. cepacia DSM 3959 (from UniProt P22089)” the No of LU recovered after denaturation and renaturation (pH stat), inclusion bodies undiluted [1] was 16 LU, the No of lipase units recovered after denaturation and renaturation, inclusion bodies diluted 1:10 [2] was 7.8 LU and the LU after renaturation [3] was 0 LU. For the same substance, the LU after renaturation [4] was 1.3 LU, the LU after renaturation [5] was 0.75 LU and the No of LU recovered (+UREA) and % recovery after denaturation and renaturation, first preparation [6] was 0.45 LU. The LU after renaturation and % recovery, new preparation [7] was 56 LU and the LU after renaturation [8] was 1 LU.

From US5681715
